Laboratory results taken from article PMC11143242 (2024).

B1: hMB668 (antibody, V domains shown)
VH: QVQLVQSGAEVKKPGSSVKVSCKSSGGTFSDYAINWVRQAPGQGLEWMGRILPIVGVPNYAQKFQGRVTITADKSSSTAYKEVSGLRSEDTAVYYCARRSGINGHGLDVWGQGTTVIVSS
VL: DIVMTQSPLSLPVTPGEPASISCRSSQSLLNTNGYNYLEWYLHKPGQSPQLLIYLGSHRASGVPDRFSGSGSGTDFTLKISRAEPEDVGVYYCMQTLQTQGYTFGQGTKLEIK
B2: hMB621 (antibody, V domains shown)
VH: QVQLVQSGGGVVQPGRSLRLSCVASGFSISTYPLHWVRQAPGKGLEWVAVISHDGRNKYYADSVKGRFSISRDNSKNTVYLQMNSLRVEDTAVYYCARAYPYAFDVWGQGTLVTVSS
VL: EIVLTQSPATLSVSPGETATLSCRASQSVRNDLAWYQQKPGQAPRLLIYGASTRASGIPARFSGSGSGTEFTLTISSLQSEDFAIYYCQQYKDWPPWTFGQGTKVEIK

How the values were obtained:
Experiment in all cases: SPR
VARV B7 [1] = target: T1, VARV B7 (variola virus (VARV))
VACV B5 [2] = target: T2, VACV B5 (vaccinia virus (VACV), UniProt Q01227 18-317)
CPXV CPXV199 [3] = target: T3, CPXV CPXV199 (cowpox virus (CPXV))
MPXV B6 protein = MPXV B6 protein (monkeypox virus (MPXV))
VARV B7 [4] = target: T1, VARV B7; remark: listed apart in the source
VACV B5 [5] = target: T2, VACV B5; remark: listed apart in the source
CPXV CPXV199 [6] = target: T3, CPXV CPXV199; remark: listed apart in the source

Binder | Kd (VARV B7 [1]) [nM] | Kd (VACV B5 [2]) [nM] | Kd (CPXV CPXV199 [3]) [nM] | koff (MPXV B6 protein) [s⁻¹] | koff (VARV B7 [4]) [s⁻¹] | koff (VACV B5 [5]) [s⁻¹] | koff (CPXV CPXV199 [6]) [s⁻¹]
B1 | 15.8 | 3.1 | 27.2 | 7.8e-05 | 5.5e-05 | 8.2e-05 | 0.00011
B2 | 5.1 | 2.8 | 2.6 | 9.7e-05 | 0.00019 | 0.00017 | 0.00011
